Laboratory results taken from the domain aggregation screens of Martell et al. (2025).

Assay: soluble fraction after stress (log2 fold change); higher = more stays soluble; pooled small domains, quantitative proteomics
Details: stress: pH 4
How it was run: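 Following acid stress at pH 4, the amount of each small protein domain still soluble was measured in pooled custom libraries by high-throughput quantitative proteomics. Its fold change, on a log2 scale, is higher when more of the domain stayed soluble. This fold change is taken as a measure of aggregation propensity.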

Sequence	soluble fraction (log2)
HMLSKGDRVSWDTPQGRTQGEVVEKKTKDFEHDGQKFTASDDDPAFIVKSEKSGAEAAHKGSALNK	-0.0554
HMLSLGIMEADMLKTGKHTISGISKATPEQRQKIDSDIEELKKKYPEKNITSKVENDNLIVESGVTAP	0.0639
HMLSNKIEQLRKEKGYTFAKLSELSGISTGRLSDLATGKRNNPTMDTLIKLADALDVTLDELVGR	-0.328
HMLSNYIGMTLGEAKRNLGQGVNITVNGPNNDNAEVTGQDPTSGSSFDKSKDTITLTT	0.225
HMLSPAQSLLLRTAARRPDGRVIPPDTLRGGARVKVLTSLLQRGWIEPVDGGHVLTDAGYAAIG	≥ 0.43
HMLSTNDYNENKNKLIKDFEIKFIIKHLKLNKGNVAATARSINFHPVSLRQKIAKLGIDVDEVMAG	-0.341
HMLSTQEYIKKNIENGSWKVGEKIPSENNLTEILGVSRASIRVAIQQFIALDVLNSIHGKGTFVKTNNIMG	0.207
HMLTALTDREEEILVLLAHNLSNKEIAKRLNLSVNTVRNHTSHIYEKLNVTSRRKAITLAQSLHLLPP	-0.067
HMLTAPMPGIVRQVNVDTGQKVRKGQPLMVLEAMKMEHQIIAPQAGKIEAIHYNEGDRVEMGSVLISIF	-0.538
HMLTAPMPGIVTEILVKEGQRVRSGQPLMILEAMKMEHQVTAPKSGQIEKIYFSEGEKVDMGSDLLSIS	-0.0146
HMLTEEVEISLMDMTKPTQPATIKTTATIQKGATTVMPKQIKMPEGYEFYGNYKMDQPFELTMTFVVKKI	-0.0427
HMLTGESDNVEKSINKLGTENLALADQTNMGFKGTFINSGHGMAIVVKTGMQTELGKIASMIQIA	0.22
HMLTGISALKPTEAFPDEIFYEIFEIEDNIERTQYIESLRNTARQLKRVTEFNNLYKSFVLDYAQRQKQ	-0.375
HMLTKAEEQVMDYLWKLEKAFVKDILDEFPEPKPAYTTVSTMVRILEKKGMVGYTAYGKNHQYYPL	-1.18
HMLTKSELVFDTLKKRIIDGELEPGTELVISRISEEFNVSTIPVREAIKTLASEGLVEMEPHKSAKVAE	-0.0422
HMLTKSVLGNQIKVLRLEKGLSQEEFGAPVDLSRSAVSQIESGQMYPSLESIGKIVKYYSTSWDNLVG	-0.162
HMLTLDEKRRLQIMRVQVALTSLGLYNGRVDGVLNAETKLGLEFFQDLKGLPKSGTMTTPTLNALGVPA	-0.347
HMLTLSGPEHAVVRALWPEPELDFDVLIRKTGLPSAQLMTLAMQLEMKKIIRRLPGRRLALMDDIRR	-0.716
HMLTRSTVNVETGTAAIGLGKLYGVYDMSRKGLKYSFSVDSDAMTKVMEMLLPLGIKSLTVEPPS	-0.658

Sequence	soluble fraction (log2)
HMLTTADLMMVHANSNKAIDYIVTDDNTKLTVDEPVTAKWITTADSIYRAVAYYNKVGDGKAQIVSVGN	0.0559
HMLTYPEHVRLRMIELRKTRSLSQSEFGTYLGLSYQTISSLELGRHEWSLAHIQTALLRFELPPNYF	-1.82
HMLVATFGPTTGWEGREIIWDVDRFILVGHGAVPAAGVLDYDRRGQLIWAQPELRAWVVEVDRWETG	-1.61
HMLVMTDNVIKAINDLLNYEAAAGIKKKQRYTAYQIYKELSEQGVYHGSRRRMEEVVSKLRVERNQI	-0.249
HMLVPWKSANLFKLVEPNFRLAERKIPMLPSADREKLQEIMSDMKDAIVDNDKMALMKLDEELTDFLFDFV	-1.03
HMLVSPLDEIPGIGRNRKKTLLNHFGSAKTIEGASLEDLKKVDGISELIAKKIYNYFHLNKNF	0.104
HMLWTDTKYVTVPDFVGKEPKEIESSYLYNIEYHGEGTKVISQQPAAFSRTIEGGTVRLYLG	0.186
HMLYGRRFQVEGLNLERYLRAAADSGIPLKGARRFGRTLTGVAAEEHMAALEALARQGGWLFTPLEAVGAN	-0.0895
HMLYKNIAKKLRFRINSDEFAIGDVLPTERQLMEEYQASRVSIRKAIDELVAIDLIEKKQGSGTYIKQKEV	-0.493
HMMESLGIRLKRLRKDKGLTQVELGKLSGVTGVTIGYWEKDLNEPGSKALSKLAQALGTTESYLLYGVS	0.22
HMMNNKEIGTRIAVLRKGMGDSQAKLAERLDVSPQAVSKWETGQSLPDIGNLLKLSWLFRTSINHILEGS	-0.384
HMNADAPWSPFSPGFTGPMNRPVIGLVTKADLANPQRISLVESWLVQAGAQKVFVTSALENTGVDEMFIFL	-0.288
HMNADLDIQNVNGNTPLWEAVMRYRGDGFFIEQLLKNGANPDIKNNYGVSPKSLARTIANYDVRRFFN	-0.333
HMNADSLIGENIRISERVSNMDQTGMAVVHGQEWTVRTRNDNEIIEPGEEAKILAISGVKLIVEK	-0.0665
HMNAESLIGDRAVVTVAIERNKRGRVDVTGQDWAATTRDGEEIKVGQEVLVVGISGVALIVEER	0.164
HMNAIYKFVLGMIGKRSGVVTTLPSKKQVEFQANMLAEKFMQNGIDPNALKSPEQVKNVLANIDQ	0.01
HMNALVAKYKQGVTEEQQQGQGIIIIKRVVVRDQEAWVYEKKIFDWGGVSYFRDKQRITASTFNQETAL	-1.12
HMNAQLTTQEAADLLNVSRPHLVKLLEDGELPFLRTGKHRRVRLADLLQFKNAREQASVQAMDELSRQAQ	-0.177
HMNARSTSYSDFIARVDKDEVASVRLDGETVTYQAADGTTYTTVKPESDPIAERLIAKGIEVNVVRQ	-0.519
